{"source": "paper PMC10018365", "about": "“Cryo-EM structure of the fully assembled Elongator complex” (Nucleic Acids Research, 2023)", "binders": {"B1": {"name": "Mus musculus Elp456 subcomplex (complex)", "chain 1": "MAAADTCGAGTLSSRSVASEAGQGGTSSFQRKGKASGGPGGGPRLLSIAGTRPSVRNGQLLVSTGLPALDQLLGGGLAVGTLLLIEEDKYNIYSPLLFKYFMAEGIINGHTLLVASAKENPAKILQELPAPLLDDNSKKELEDVHSAKTPEPNVNMKIAWRYQLQPKMEVGPVSSSRFGHYYDLSKRIPWELLQSSKWHGFFLPEHISPDLKGESCFLSCGYMRLLEFIQKSVYAEGFDGANPQKKQKNILRIGIQNLGSPLWGDDICCKENCDNNHRLTKFLYILRGLLRSSLSACIITMPAHLVQNKSITTRVRNLSDTVVGLESFIGSERETNPLYKDYHGLIHIRKIPRLNNLTCDESDVKDLAFKLKRKLFTIERLHLPPDLSDTVGRSSKQDLAASTARLGAGCSSMAEGKKHLDF", "chain 2": "MLDSLLAIGGLVLLRDSVEWEGRSLLKALIKKSALRGEQVHVLGCEVSEEEFREGFDSDVNSRLVYHDLFRDPLNWSKPGEAVPEGPLKALRSMCKRTDHGSVTIALDSLSWLLCHIPCVTLCQALHALSQQNGDPGDNSLVEQVRVLGLLHEELHGPGSMGALNTLAHTEVTLSGKVDQTSASILCRRPQQRATYQTWWFSVLPDFSLTLHEGLPLRSELHPDHHTTQVDPTAHLTFNLHLSKKEREARDSLTLPFQFSSEKQKALLHPVPSRTTGHIFYEPDAFDDVDPEDPDDDLDI", "chain 3": "MFPELNNLLSTTPDKTEQGTLTLLCDAKTDGSFLVHHFLSFYLKANCKVCFVALVQSFSHYNIVGQKLGVSLTAARDRGQLVFLEGLKSSVEVLFHSQDEPHPLQFLREAGTGNLQSLYTFIQDTLKPADSEESPWKYPVLLVDNLSVLLSLGVGAVAVLDFMQYCRATVCCELKGNVVALVHDTEGATDEGNDTLLNGLSHQSHLILRAEGLATGFCKDVHGQLSILWRRPSRSTAQRAQSLTYQYKIQDKNVSFFAKGMSPAVL", "notes": "Elp4, mouse, ORF; Elp5, mouse, ORF; Elp6, mouse, ORF; Gel filtration at about 220 kDa; also called MmElp456; mouse Elp456; source: Hi-5 insect cells (baculovirus, biGBac), purified (IgG Sepharose with TEV elution, Superose 6); not shown: FLAG, C-terminal, kept; Protein A, C-terminal, cleaved; copies: 2 + 2 + 2"}, "B2": {"name": "Homo sapiens Elp456 subcomplex, wild type (complex)", "chain 1": "MAAVATCGSVAASTGSAVATASKSNVTSFQRRGPRASVTNDSGPRLVSIAGTRPSVRNGQLLVSTGLPALDQLLGGGLAVGTVLLIEEDKYNIYSPLLFKYFLAEGIVNGHTLLVASAKEDPANILQELPAPLLDDKCKKEFDEDVYNHKTPESNIKMKIAWRYQLLPKMEIGPVSSSRFGHYYDASKRMPQELIEASNWHGFFLPEKISSTLKVEPCSLTPGYTKLLQFIQNIIYEEGFDGSNPQKKQRNILRIGIQNLGSPLWGDDICCAENGGNSHSLTKFLYVLRGLLRTSLSACIITMPTHLIQNKAIIARVTTLSDVVVGLESFIGSERETNPLYKDYHGLIHIRQIPRLNNLICDESDVKDLAFKLKRKLFTIERLHLPPDLSDTVSRSSKMDLAESAKRLGPGCGMMAGGKKHLDF", "chain 2": "MLDSLLALGGLVLLRDSVEWEGRSLLKALVKKSALCGEQVHILGCEVSEEEFREGFDSDINNRLVYHDFFRDPLNWSKTEEAFPGGPLGALRAMCKRTDPVPVTIALDSLSWLLLRLPCTTLCQVLHAVSHQDSCPGDSSSVGKVSVLGLLHEELHGPGPVGALSSLAQTEVTLGGTMGQASAHILCRRPRQRPTDQTQWFSILPDFSLDLQEGPSVESQPYSDPHIPPVDPTTHLTFNLHLSKKEREARDSLILPFQFSSEKQQALLRPRPGQATSHIFYEPDAYDDLDQEDPDDDLDI", "chain 3": "MFVELNNLLNTTPDRAEQGKLTLLCDAKTDGSFLVHHFLSFYLKANCKVCFVALIQSFSHYSIVGQKLGVSLTMARERGQLVFLEGLKSAVDVVFQAQKEPHPLQFLREANAGNLKPLFEFVREALKPVDSGEARWTYPVLLVDDLSVLLSLGMGAVAVLDFIHYCRATVCWELKGNMVVLVHDSGDAEDEENDILLNGLSHQSHLILRAEGLATGFCRDVHGQLRILWRRPSQPAVHRDQSFTYQYKIQDKSVSFFAKGMSPAVL", "notes": "Elp4, human, ORF; Elp5, human, ORF; Elp6, human, ORF; also called human Elp456; source: Hi-5 insect cells (baculovirus, biGBac), purified (IgG Sepharose with TEV elution, Superose 6); not shown: FLAG, C-terminal, kept; Protein A, C-terminal, cleaved; copies: 2 + 2 + 2"}, "B3": {"name": "Saccharomyces cerevisiae Elp3 (enzyme, UniProt Q02908 1-557, looked up)", "chain": "MARHGKGPKTNKKKLAPEKERFIQCCADITLELTDSLTSGTTREINLNGLITKYSKKYKLKQQPRLTDIINSIPDQYKKYLLPKLKAKPVRTASGIAVVAVMCKPHRCPHIAYTGNICVYCPGGPDSDFEYSTQSYTGYEPTSMRAIRARYDPYEQARGRVEQLKQLGHSIDKVEYVLMGGTFMSLPKEYREDFIVKLHNALSGFNGNDIDEAILYSQQSLTKCVGITIETRPDYCTQTHLDDMLKYGCTRLEIGVQSLYEDVARDTNRGHTVRSVCETFAVSKDAGYKVVSHMMPDLPNVGMERDIEQFKEYFENPDFRTDGLKIYPTLVIRGTGLYELWKTGRYKSYSANALVDLVARILALVPPWTRIYRVQRDIPMPLVTSGVDNGNLRELALARMKDLGTTCRDVRTREVGIQEVHHKVQPDQVELIRRDYYANGGWETFLSYEDPKKDILIGLLRLRKASKKYTYRKEFTSQRTSIVRELHVYGSVVPLHSRDPRKFQHQGFGTLLMEEAERIAKEEHGSEKISVISGVGVRNYYGKLGYELDGPYMSKRI", "notes": "Elp3, S. cerevisiae, full-length ORF; also called ScElp3; source: S. cerevisiae DS1-2b, overexpressed, purified within ScElongator; not shown: Twin-Strep-tag, C-terminal, kept"}}, "conditions_in_all_cases": "both partners purified", "key": {"[1]": {"target": "T1, Mus musculus Elp123 subcomplex (Mus musculus, UniProt Q7TT37 1-1333; Q91WG4 1-831; Q9CZX0 1-547)", "T1 construct": "Elp1, mouse, ORF; Elp2, mouse, ORF; Elp3, mouse, ORF; Gel filtration at about 610 kDa; also called MmElp123; mouse Elp123; source: Super Sf9-1 insect cells (baculovirus, biGBac), purified (StrepTrap, heparin, Superose 6); not shown: Twin-Strep-tag, C-terminal, kept; copies: 2 + 2 + 2", "experiment": "cryo-EM structure; MmElongator reconstituted from purified MmElp123 and MmElp456 and re-purified by gel filtration, 5.9 Å"}, "[2]": {"target": "T2, Homo sapiens Elp123 subcomplex, wild type (Homo sapiens, UniProt O95163 1-1332; Q6IA86 1-826; Q9H9T3 1-547)", "T2 construct": "Elp1, human, ORF; Elp2, human, ORF; Elp3, human, ORF; also called human Elp123; source: Sf9-3 insect cells (baculovirus, biGBac), purified (StrepTrap, heparin, Superose 6); not shown: Twin-Strep-tag, C-terminal, kept; copies: 2 + 2 + 2", "T2 sequence (O95163 whole entry, chain 1 of 3)": "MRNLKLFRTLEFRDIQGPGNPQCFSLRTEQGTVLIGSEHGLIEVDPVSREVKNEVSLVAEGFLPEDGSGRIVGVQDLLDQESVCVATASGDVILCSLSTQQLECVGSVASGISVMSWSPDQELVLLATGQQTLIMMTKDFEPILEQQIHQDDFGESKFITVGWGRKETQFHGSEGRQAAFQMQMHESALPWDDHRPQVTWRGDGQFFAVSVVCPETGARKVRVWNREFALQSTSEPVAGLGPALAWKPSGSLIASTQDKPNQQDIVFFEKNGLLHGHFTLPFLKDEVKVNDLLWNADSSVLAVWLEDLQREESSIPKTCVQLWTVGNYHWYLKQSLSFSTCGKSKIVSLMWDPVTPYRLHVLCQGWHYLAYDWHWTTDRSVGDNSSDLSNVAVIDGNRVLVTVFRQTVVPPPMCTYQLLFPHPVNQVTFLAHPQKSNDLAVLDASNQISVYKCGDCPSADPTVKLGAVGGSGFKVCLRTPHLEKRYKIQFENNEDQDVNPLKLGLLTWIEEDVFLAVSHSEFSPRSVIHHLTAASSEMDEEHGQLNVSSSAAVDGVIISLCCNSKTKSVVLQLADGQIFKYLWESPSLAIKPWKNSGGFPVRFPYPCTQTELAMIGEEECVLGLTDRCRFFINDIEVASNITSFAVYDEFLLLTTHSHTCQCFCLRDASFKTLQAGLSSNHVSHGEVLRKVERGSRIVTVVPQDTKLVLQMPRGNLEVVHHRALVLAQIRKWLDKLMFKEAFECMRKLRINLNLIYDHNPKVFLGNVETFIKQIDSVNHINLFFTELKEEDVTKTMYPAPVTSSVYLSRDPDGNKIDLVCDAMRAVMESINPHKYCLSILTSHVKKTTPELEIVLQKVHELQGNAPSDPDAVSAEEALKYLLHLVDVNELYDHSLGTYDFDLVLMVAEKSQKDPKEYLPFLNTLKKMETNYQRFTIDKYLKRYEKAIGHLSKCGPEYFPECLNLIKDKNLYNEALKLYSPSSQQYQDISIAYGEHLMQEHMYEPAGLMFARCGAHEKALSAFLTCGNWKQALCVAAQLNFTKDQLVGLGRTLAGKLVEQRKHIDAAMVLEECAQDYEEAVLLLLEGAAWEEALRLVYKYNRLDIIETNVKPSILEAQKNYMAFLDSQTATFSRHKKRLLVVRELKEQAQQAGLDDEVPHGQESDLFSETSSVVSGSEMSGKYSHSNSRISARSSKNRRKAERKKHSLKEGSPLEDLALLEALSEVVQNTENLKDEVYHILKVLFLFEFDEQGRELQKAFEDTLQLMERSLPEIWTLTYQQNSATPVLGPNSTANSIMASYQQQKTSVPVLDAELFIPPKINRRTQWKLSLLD", "T2 sequence (Q6IA86 whole entry, chain 2 of 3)": "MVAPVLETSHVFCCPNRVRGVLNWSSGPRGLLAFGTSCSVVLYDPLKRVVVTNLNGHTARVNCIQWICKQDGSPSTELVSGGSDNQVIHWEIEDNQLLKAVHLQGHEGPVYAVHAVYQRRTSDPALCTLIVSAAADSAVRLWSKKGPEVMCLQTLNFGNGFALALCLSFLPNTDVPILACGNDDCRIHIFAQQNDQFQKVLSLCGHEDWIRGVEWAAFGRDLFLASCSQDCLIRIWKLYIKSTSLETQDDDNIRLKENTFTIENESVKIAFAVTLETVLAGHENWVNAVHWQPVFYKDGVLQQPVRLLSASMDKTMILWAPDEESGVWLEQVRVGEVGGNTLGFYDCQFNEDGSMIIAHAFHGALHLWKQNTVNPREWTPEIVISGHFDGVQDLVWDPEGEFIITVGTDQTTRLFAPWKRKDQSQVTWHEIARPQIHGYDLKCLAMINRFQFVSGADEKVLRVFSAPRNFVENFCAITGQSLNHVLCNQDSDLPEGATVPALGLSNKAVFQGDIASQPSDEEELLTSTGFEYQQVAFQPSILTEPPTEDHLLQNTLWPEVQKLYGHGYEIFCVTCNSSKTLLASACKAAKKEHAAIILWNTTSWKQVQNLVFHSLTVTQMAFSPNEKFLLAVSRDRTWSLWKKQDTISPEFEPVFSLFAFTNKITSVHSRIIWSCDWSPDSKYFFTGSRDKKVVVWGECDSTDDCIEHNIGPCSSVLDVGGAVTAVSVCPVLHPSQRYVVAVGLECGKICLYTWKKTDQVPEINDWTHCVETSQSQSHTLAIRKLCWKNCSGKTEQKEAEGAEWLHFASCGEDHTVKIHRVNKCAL", "T2 sequence (Q9H9T3 whole entry, chain 3 of 3)": "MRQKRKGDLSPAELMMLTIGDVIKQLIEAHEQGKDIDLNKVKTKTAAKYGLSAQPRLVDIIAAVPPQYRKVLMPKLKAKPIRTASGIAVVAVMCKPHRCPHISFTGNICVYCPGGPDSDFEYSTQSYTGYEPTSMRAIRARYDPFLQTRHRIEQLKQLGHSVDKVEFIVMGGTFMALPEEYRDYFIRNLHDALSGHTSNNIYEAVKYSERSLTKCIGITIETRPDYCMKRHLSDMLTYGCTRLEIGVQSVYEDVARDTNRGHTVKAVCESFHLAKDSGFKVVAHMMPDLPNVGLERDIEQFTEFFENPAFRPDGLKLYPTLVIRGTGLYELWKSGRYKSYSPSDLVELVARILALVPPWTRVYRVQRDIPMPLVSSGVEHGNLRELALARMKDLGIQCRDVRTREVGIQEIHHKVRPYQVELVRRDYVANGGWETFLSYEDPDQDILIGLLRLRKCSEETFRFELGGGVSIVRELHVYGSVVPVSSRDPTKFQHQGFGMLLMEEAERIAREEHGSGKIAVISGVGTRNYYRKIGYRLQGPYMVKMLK", "experiment": "SEC; Elp123 incubated with the respective Elp456 for 30 min at 25°C at 1:2 weight ratio, then Superose 6 Increase 10/300 GL in 20 mM HEPES pH 7.5, 100 mM NaCl, 5 mM DTT"}, "[3]": {"target": "T3, Homo sapiens Elp123 subcomplex with Elp1 Δ1132–1224 (Homo sapiens, UniProt O95163 1-1332; Q6IA86 1-826; Q9H9T3 1-547, Δ1132–1224)", "T3 construct": "Elp2, human, ORF; Elp3, human, ORF; source: Sf9-3 insect cells (baculovirus, biGBac), purified (StrepTrap, heparin, Superose 6); not shown: Twin-Strep-tag, C-terminal, kept; copies: 2 + 2 + 2", "T3 sequence (O95163 other isoform, or with tags, fused parts or gaps Δ1132–1224 | Δ1132–1224 | mutant, chain 1 of 3)": "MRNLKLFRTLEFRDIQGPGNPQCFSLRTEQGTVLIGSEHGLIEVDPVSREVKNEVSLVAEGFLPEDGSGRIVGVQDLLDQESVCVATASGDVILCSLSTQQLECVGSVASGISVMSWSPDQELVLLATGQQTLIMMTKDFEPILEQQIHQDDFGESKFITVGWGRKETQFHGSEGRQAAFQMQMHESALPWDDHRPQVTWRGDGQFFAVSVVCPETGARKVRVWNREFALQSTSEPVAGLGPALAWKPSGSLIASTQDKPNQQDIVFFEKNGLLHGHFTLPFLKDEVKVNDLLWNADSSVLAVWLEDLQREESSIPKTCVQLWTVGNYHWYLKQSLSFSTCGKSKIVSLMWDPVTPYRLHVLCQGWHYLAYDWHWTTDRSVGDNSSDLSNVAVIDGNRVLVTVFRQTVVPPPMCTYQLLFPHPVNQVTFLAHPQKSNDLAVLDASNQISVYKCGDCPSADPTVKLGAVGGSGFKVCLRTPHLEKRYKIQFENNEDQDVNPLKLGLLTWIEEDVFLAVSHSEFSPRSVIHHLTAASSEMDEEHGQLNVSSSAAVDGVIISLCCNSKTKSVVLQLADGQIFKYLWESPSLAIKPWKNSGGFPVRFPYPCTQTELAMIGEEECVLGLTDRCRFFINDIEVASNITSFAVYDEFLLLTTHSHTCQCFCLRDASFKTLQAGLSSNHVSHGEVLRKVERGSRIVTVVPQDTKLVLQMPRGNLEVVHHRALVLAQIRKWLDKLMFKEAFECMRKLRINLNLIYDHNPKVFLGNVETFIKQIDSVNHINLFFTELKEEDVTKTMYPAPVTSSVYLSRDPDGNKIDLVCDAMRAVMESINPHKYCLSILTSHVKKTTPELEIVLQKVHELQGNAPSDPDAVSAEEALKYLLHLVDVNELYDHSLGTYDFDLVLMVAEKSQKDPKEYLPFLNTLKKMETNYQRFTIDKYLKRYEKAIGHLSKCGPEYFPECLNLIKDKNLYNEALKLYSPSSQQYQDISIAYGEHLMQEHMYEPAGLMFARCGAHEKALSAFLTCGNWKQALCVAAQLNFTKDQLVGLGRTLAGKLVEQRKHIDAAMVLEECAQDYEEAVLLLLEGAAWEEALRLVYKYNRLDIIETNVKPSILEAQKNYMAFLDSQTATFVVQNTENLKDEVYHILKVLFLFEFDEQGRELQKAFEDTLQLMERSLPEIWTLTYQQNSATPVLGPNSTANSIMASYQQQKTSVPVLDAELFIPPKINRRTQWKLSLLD", "T3 sequence (Q6IA86 whole entry, stated change not applied, chain 2 of 3)": "as the sequence (Q6IA86 whole entry, chain 2 of 3) above", "T3 sequence (Q9H9T3 whole entry, stated change not applied, chain 3 of 3)": "as the sequence (Q9H9T3 whole entry, chain 3 of 3) above", "experiment": "pull-down; 10 μg bait, 20 μg prey; Elp123 on StrepTactin Sepharose by Twin-Strep-tagged Elp3, or Elp456 on anti-DYKDDDDK resin by FLAG-tagged Elp6; 30-60 min at 4°C; washes in 20 mM HEPES pH 7.5, 100 mM NaCl, 1 mM DTT, 0.05% Tween 20; SDS-PAGE with Coomassie or silver stain; also with ATP and bulk tRNA"}, "[4]": {"target": "T4, Saccharomyces cerevisiae Elp1 (Saccharomyces cerevisiae, UniProt Q06706 1-1349)", "T4 construct": "Elp1, S. cerevisiae, full-length ORF; also called ScElp1; source: S. cerevisiae DS1-2b, overexpressed, purified within ScElongator", "T4 sequence (looked up)": "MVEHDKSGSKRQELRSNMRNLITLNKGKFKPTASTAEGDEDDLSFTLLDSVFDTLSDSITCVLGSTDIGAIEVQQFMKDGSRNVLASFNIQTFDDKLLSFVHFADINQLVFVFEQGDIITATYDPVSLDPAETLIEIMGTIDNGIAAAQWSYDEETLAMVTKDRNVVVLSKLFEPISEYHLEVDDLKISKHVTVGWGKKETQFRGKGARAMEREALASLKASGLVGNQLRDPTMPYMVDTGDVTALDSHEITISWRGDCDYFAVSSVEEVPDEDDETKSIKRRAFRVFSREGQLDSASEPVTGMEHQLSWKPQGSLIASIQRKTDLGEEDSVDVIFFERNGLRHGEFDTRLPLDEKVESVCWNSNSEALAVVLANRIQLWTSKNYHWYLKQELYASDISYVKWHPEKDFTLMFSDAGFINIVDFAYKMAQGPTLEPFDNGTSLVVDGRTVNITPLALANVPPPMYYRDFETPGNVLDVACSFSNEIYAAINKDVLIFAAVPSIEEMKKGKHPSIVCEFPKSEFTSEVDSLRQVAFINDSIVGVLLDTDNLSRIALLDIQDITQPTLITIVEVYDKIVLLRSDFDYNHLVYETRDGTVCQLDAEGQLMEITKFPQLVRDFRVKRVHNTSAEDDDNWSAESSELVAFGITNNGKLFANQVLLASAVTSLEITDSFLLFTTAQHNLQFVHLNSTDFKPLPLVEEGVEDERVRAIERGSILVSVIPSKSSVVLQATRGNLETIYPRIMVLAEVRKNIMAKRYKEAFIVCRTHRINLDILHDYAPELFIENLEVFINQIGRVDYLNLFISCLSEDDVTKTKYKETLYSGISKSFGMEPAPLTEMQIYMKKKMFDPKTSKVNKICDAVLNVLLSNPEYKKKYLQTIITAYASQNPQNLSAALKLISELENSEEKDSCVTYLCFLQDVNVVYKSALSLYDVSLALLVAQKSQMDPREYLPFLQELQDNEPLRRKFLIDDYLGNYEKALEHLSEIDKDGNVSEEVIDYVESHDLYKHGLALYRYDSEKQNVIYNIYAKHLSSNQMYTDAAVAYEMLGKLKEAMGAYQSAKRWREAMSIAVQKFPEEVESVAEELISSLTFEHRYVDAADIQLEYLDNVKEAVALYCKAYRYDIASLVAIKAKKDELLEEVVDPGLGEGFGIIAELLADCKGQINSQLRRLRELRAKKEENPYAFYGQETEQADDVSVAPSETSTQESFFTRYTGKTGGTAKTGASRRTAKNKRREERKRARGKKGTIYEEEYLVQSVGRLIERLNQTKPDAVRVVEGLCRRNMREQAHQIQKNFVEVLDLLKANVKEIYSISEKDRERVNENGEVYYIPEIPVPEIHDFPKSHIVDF", "experiment": "cryo-EM structure; ScElp123 with yeast tRNA Ala UGC (3-5 molar excess, 15 min on ice), 3.96 Å"}, "[5]": {"target": "T5, Saccharomyces cerevisiae Elp2 (Saccharomyces cerevisiae, UniProt P42935 1-788)", "T5 construct": "Elp2, S. cerevisiae, full-length ORF; also called ScElp2; source: S. cerevisiae DS1-2b, overexpressed, purified within ScElongator", "T5 sequence (looked up)": "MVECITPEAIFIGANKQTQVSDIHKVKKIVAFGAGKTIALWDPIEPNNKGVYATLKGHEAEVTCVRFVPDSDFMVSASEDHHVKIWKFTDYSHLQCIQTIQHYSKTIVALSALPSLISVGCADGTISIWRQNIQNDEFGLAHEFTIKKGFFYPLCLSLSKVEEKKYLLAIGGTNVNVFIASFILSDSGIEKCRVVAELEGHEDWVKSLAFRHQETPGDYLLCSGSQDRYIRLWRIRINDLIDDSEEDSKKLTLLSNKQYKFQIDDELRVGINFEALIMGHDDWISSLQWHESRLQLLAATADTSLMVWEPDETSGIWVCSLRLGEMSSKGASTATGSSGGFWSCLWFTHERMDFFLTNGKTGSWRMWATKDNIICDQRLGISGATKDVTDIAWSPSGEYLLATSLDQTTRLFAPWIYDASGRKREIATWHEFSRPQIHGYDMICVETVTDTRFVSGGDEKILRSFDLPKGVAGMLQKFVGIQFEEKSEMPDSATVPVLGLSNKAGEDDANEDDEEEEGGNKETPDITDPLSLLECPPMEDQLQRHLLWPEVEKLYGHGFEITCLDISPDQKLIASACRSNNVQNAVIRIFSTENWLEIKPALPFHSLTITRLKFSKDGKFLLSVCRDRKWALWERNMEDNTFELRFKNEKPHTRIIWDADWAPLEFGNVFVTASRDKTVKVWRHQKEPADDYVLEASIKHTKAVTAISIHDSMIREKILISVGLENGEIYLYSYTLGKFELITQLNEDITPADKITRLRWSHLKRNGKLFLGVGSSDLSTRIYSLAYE", "experiment": "cryo-EM structure; ScElp123 with yeast tRNA Ala UGC (3-5 molar excess, 15 min on ice), 3.96 Å"}}}
{"binder": "B1", "values": [{"measurement": "stoichiometry N", "setting": "[1]", "result": 1}]}
{"binder": "B2", "values": [{"measurement": "binding result", "setting": "[2]", "result": "binds"}, {"measurement": "binding result", "setting": "[3]", "result": "binds"}]}
{"binder": "B3", "values": [{"measurement": "binding result", "setting": "[4]", "result": "binds"}, {"measurement": "binding result", "setting": "[5]", "result": "binds"}]}
